# B1: benchmark anti-LAG-3 antibody, BMS 986016 (SEQ ID NOs: 5 and 6) (antibody, V domains shown)
# VH: QVQLQQWGAGLLKPSETLSLTCAVYGGSFSDYYWNWIRQPPGKGLEWIGEINHRGSTNSNPSLKSRVTLSLDTSKNQFSLKLRSVTAADTAVYYCAFGYSDYEYNWFDPWGQGTLVTVSS
# VL: EIVLTQSPATLSLSPGERATLSCRASQSISSYLAWYQQKPGQAPRLLIYDASNRATGIPARFSGSGSGTDFTLTISSLEPEDFAVYYCQQRSNWPLTFGQGTNLEIKR
# Target: T1, cynomolgus LAG-3 on CHO cells (cynomolgus)
# T1 construct: whole, on cells; also called CHO::cyLAG-3; CHO cells transfected with cynomolgus LAG-3
# Experiment: FACS on CHO cells transfected with cynomolgus LAG-3
# Protocol: 5×10⁴ cells per well were pre-incubated for 1 h in ice-cold PBS containing 5% fetal calf serum (PBS-FCS). […] Cells were washed twice in ice-cold PBS using centrifugation at 300×g and then incubated with a rabbit anti-lipocalin primary antibody (polyclonal rabbit anti-hTlc, Pieris) for 30 min on ice. Cells were then again washed twice in ice-cold PBS, re-suspended in PBS-FCS and incubated 30 min on ice with an antibody labelled with Alexafluor647 (Jackson Immunologics). Cells were subsequently washed and analyzed using intellicyt IQue Flow cytometer (Intellicyt). Fluorescent data generated by lipocalin mutein binding to LAG-3 expressing cells were analyzed using Forecyt software and resulted geometric fluorescent mean were plotted and fitted using Graphpad software.
binder,measurement,value
B1,EC50,21 nM

# Source: patent US20190031729A1 (Pieris, published 2019)
